Test results: patent US6570069B1, “Nucleic acids encoding plant inhibitors of apoptosis and transgenic cells and plants expressing them” (priority 2000, dated 2003)
Entries after “also recorded” stand apart in the source; their conditions may differ.

T1: pro-caspase-9 (Homo sapiens, UniProt P55211)
T1 construct: host or cells: cell-free in vitro transcription/translation
T1 sequence (P55211 1-416): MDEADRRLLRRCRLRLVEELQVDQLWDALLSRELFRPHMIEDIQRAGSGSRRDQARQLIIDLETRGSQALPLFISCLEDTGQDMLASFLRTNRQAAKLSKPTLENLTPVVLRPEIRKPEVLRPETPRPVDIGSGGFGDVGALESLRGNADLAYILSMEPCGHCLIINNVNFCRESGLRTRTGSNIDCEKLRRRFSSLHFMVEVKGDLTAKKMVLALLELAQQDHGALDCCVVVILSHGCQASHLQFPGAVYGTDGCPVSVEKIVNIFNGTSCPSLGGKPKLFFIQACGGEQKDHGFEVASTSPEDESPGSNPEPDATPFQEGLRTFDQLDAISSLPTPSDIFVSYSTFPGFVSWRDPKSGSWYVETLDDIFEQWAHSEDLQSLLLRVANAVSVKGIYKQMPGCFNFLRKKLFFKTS

T2: caspase-3 (Homo sapiens, UniProt P42574)
T2 construct: His6 (C); made in house
T2 sequence (P42574 29-175 limits assumed): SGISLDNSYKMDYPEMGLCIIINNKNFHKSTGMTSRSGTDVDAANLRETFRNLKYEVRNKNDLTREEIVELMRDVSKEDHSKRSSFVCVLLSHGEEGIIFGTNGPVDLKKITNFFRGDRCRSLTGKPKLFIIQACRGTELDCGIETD
T2 sequence (P42574 176-277 limits assumed): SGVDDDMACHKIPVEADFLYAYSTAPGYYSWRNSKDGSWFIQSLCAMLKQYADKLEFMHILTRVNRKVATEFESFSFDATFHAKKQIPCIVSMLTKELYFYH

B1: SfIAP: cellular IAP cloned from Spodoptera frugiperda, protein of 377 amino acids (SEQ ID NO:3); GST-fusion when recombinant (protein, listed as Spodoptera frugiperda)
chain: MWSCSLPCWNTKKSGLQMDITKVASNGSSSTLTLFKSGSLEAKIRPLAPLMLPTPSYDSNAGSPSLSPSTPCSSSSFSIDKTDNHDTFGFSADTVDMRKEDERMKTFEKWPVSFLSGEQLARNGFYYLGRRDEARCAFCKVEIMRWVEGDDPAKDHQRWAPQCPFVRKLNGTAAADTGSSGQDECGARAAPSGTSPPRMAGPVHPRYASEAARLRSFKDWPRCMRQKPEELAEAGFFYTGQGDKTKCFYCDGGLKDWENHDVPWEQHARWFDRCAYVQLVKGREYVQKVISEACEVSASEAERDVAPARTAEPSPPAEAPENSVDDSKLCKICYAEERNVCFVPCGHVVACAKCALAADKCPMCRRTFQNAVRLYFS
modifications: GST fusion when recombinant; fall armyworm inhibitor of apoptosis protein (SfIAP)
B2: CpIAP: baculoviral (CpGV) inhibitor of apoptosis protein; complete ORF expressed myc-tagged or as GST-fusion (protein)
chain: MSDLRLEEVRLNTFEKWPVSFLSPETMAKNGFYYLGRSDEVRCAFCKVEIMRWKEGEDPAADHKKWAPQCPFVKGIDVCGSIVTTNNIQNTTTHDTIIGPAHPKYAHEAARVKSFHNWPRCMKQRPEQMADAGFFYTGYGDNTKCFYCDGGLKDWEPEDVPWEQHVRWFDRCAYVQLVKGRDYVQKVITEACVLPGENTTVSTAAPVSEPIPETKIEKEPQVEDSKLCKICYVEECIVCFVPCGHVVACAKCALSVDKCPMCRKIVTSVLKVYFS
modifications: left off: a dimerising Fc or GST
notes: complete ORF expressed myc-tagged or as GST-fusion

Assays:
pro-caspase-9 = target: T1, pro-caspase-9; assay: GST pull-down binding of [35S]-pro-caspase-9; parameters: species or system mammalian; conditions: GST fusion protein on glutathione-Sepharose
Method: [^35S]Pro-caspase-9 was in vitro transcribed and translated in the presence of [^35S]L-methionine using TNT kit from Promega. Protein were desalted and exchanged into buffer (20 mM HEPES pH 7.5, 10 mM KCl, 1.5 mM MgCl2, 1 mM EDTA and 1 mM DTT) with Bio-spin P-6 columns (Bio-Rad). […] After incubation at 4 ° C. for 1 hour, beads were removed by centrifugation and washed twice with 0.5 ml of 50 mM Tris (pH 7.5), 150 mM NaCl, 2 mm DTT before analysis by SDS-PAGE and autoradiography.

caspase-3 = target: T2, caspase-3; assay: Inhibition of recombinant purified caspase-3; format: biochemical, mammalian; conditions: in vitro
Method: pGEX4T-1-SfIAP and pGEX4T-1 -CpIAP plasmids were introduced into E. coli strain BL21 (DE3) containing the plasmid pT-Trx. GST fusion proteins were obtained by induction with 0.05 mM IPTG at 25° C. for 8 hours, then purified using glutathione-Sepharose, essentially as described (Deveraux, Q., Welsh, K. & Reed, J. Methods of Enzymology in press). Caspases-3, and -7, containing C-terminal His6-tags, and caspase-8 containing an N-terminal His6-tag were purified as described previously (Stennicke, H. R. & Salvesen, G. S. (I1997) J. Biol. Chem. 272, 25719-25723; Stennicke, H., et al., (1998) J. Biol. Chem. 273, 27084-27090; Stennicke, H., et al., (1999) J. Biol. Chem. 274, 8359-8362). Caspase-9 lacking the CARD domain (ΔCARD-caspase-9) was constructed by truncating the cDNA and introducing a start codon substituting Val139. […] Concentrations of purified enzymes were determined from absorbance at 280 nm based on the molar absorption coefficients: caspase-3 (A280=26,000M−1 cm−1), caspase-7 (A280=24,500 M−1 cm−1), caspase-9 (A280=30,010M−1 cm−1).
(§1) Caspase activity was assayed by release of 7-amino-4-trifluoromethyl-coumarin (AFC) from Ac-DEVD or Ac-LEHD-containing synthetic peptides (Calbiochem) using continuous-reading instuments as described (Quan, L. T. et al., (1995) J. Biol. Chem. 270:10377-10379).

[1] = test system: recombinant active caspase-9; assay: Enzyme inhibition assay with recombinant active caspase-9 and Ac-LEHD-AFC; format: biochemical, mammalian; conditions: Ac-LEHD-AFC substrate
Method: pGEX4T-1-SfIAP and pGEX4T-1 -CpIAP plasmids were introduced into E. coli strain BL21 (DE3) containing the plasmid pT-Trx. GST fusion proteins were obtained by induction with 0.05 mM IPTG at 25° C. for 8 hours, then purified using glutathione-Sepharose, essentially as described (Deveraux, Q., Welsh, K. & Reed, J. Methods of Enzymology in press). Caspases-3, and -7, containing C-terminal His6-tags, and caspase-8 containing an N-terminal His6-tag were purified as described previously (Stennicke, H. R. & Salvesen, G. S. (I1997) J. Biol. Chem. 272, 25719-25723; Stennicke, H., et al., (1998) J. Biol. Chem. 273, 27084-27090; Stennicke, H., et al., (1999) J. Biol. Chem. 274, 8359-8362). Caspase-9 lacking the CARD domain (ΔCARD-caspase-9) was constructed by truncating the cDNA and introducing a start codon substituting Val139. The resulting cDNA was subcloned into pET-23b and expressed in BL21 (DE3), yielding fully processed enzyme when cells were induced using 0.2 mM IPTG at OD600=0.6 for 4 hrs (Stennicke, H., Deveraux, Q., Humike, E., Reed, J., Dixit, V. & Salvesen, G. (1999) J. Biol. Chem. 274, 8359-8362). All expressed caspases were purified by Ni-chelation affinity-chromatography, as described (Stennicke, H., et al., (1999) J. Biol. Chem. 274, 8359-8362; Stennicke, H. R. & Salvesen, G. S. (1997) J. Biol. Chem. 272, 25719-25723; Stennicke, H., et al., (1998) supra). Concentrations of purified enzymes were determined from absorbance at 280 nm based on the molar absorption coefficients: caspase-3 (A280=26,000M−1 cm−1), caspase-7 (A280=24,500 M−1 cm−1), caspase-9 (A280=30,010M−1 cm−1).
as §1
To directly examine the possibility that SfIAP and CpLAP inhibit caspase-9, enzyme inhibition assays were performed using bacteria-produced recombinant active caspase-9, recombinant-purified SfIAP and CpIAP, and Ac-LEHD-AFC as a caspase-9 substrate.

Row | Molecule | binding to pro-caspase-9 (autoradiography) (pro-caspase-9) | inhibition of caspase-3 (caspase-3) | inhibition of recombinant active caspase-9 [1] | molar-excess relative to caspase-9 which produced ~50% inhibition of protease activity [1] [fold]
1 | B1 | associated with pro-caspase-9 | nor inhibited | inhibited recombinant active caspase-9 in a concentration-dependent manner; also recorded: direct inhibitors of mammalian caspase-9 | 8
2 | B2 | associated with pro-caspase-9 | nor inhibited | inhibited recombinant active caspase-9 in a concentration-dependent manner; also recorded: direct inhibitors of mammalian caspase-9 | 12
